The record followed here is a protein production outcome set (Wang et al. 2014).

A short description of this series: label from the status in PepcDB records.
“KVVKFSYMWTINNFSFCREEMGEVIKSSTFSSGANDKLKWCLRVNPKGLDEESKDYLSLYLLLVSCPKSEVRAKFKFSILNAKGEETKAMESQRAYRFVQGKDWGFKKFIRRDFLLDEANGLLPDDKLTLFCEVSVVQDSVNISGQ”: the protein production entry is reported as “not failed”.

Regarding “KVWKPGDECFALYWEDNKFYRAEVEALHSSGMTAVVKFTDYGNYEEVLLSNIKPVQTEAWVRDPN”, the protein production result is “not failed”. “LAALCPVAVPSGVQIYTIDGPLFFGAAATFERTLAGLHDQAEAVIFRLGRVPFADATAMHALDDVVRHFRQRHIEVRVCEANPRVAHKLREFGLLARIGQQDASISVLDALAELAPQPGTQVQAEAS”: the protein production entry is “failed”. In the case of “LAKILGMDSDGLNRLECFDISHTQGEATIASCVVYDEQNIQPSQYRRYNITTAKPGDDYAAMREVLTRRYGKMQEAEANGETVKWPDAVLIDGGKGQIGVAVSVWEELGLHIPLVGIAKGPERKAGMEELILPFTGEVFRLPPNSPALHLLQTVRDESHRFAI”, the protein production entry is “failed”.

As to “LAVIVVLGCFALGLGGIIGFVHKGEDYQAYQKLQWHTLAPEKIAPLVAQGYTVFVDITSDWCSICQTNKAEVTHREQVVNALMADDIILMQGNWSEADNTIAGYMQYEGIPGTPYNKIYGPRNPNGIVLPSKLTIEAVINGLAQA”, the protein production entry is on record as “failed”. For “LAYEELRQREAQTAMQLAVNNALLTIKDRSRMLLAVCEQIDKLVPCTFLGIRVMDRDGNFRIFDNFMRETPSGFFPVSAHEKLDVPDFAEMARESFSLITSPGCFSGEAFQLLCDKYRLVGLVREKFNICSLISVRLWDLPGSCAGLIISDTSRAFDEHDQETVGLIVPQLSLALQNYLAFEEIDKLRRKLEGEKAYLFEEIKATHD”, the protein production result is given as “failed”. As to “LDLMKEKNLIQKFFKELIKDDGGLSAYGEAQVMKYLEMGAIDTLIVTEDIGITRVTVKCNNCDYAQEVNVKTNEMFKFEEQLKTKACPTCGGAMYIDEEKDIIEHLSDLCHMHNTDIIVVSTDTEEGSQISRAFKGMAAILRYKL”, the protein production entry is listed as “not failed”. In the case of “LDNRFNYINVPGLGGSGEHHWQTFWEQAYPEIHRVQQADWDHPICSVWVNKLQLITETCSDKPVVLIAHSLGCVTVLHAVAQRKLKGIAGAFLVAMPDAERADFPKECIGFIPVPRIVLPFPAVMIASENDPYITSPELKKWADVIQASFVSVGQRGHIGTAAQLTYWEEGQQLFRSFVEQL” it was “failed”; in that of “LENCVFCKIIKRELPSTIYYEDERVIAIKDINPAAPVHVLIIPKEHIANVKEINESNAQILIDIHKAANKVAEDLGIAEKGYRLITNCGVAAGQTVFHLHYHLLGGVDMGPKIL”, “not failed”. Under “LEYQKSQPPQPGDKFVSVVSQFITVASFSFSDVEDLLAEAKDLFTKAVKHFGEEAGKIQPDEFFGI” stands “failed”; under “LFSSRDILEVLQDIHMETGETVAIATKNDIYLQYIQIIESVHALRFHVDENAIRPLTMSSNGWMLMSTMNDKAIDNTVRRANTITQKDGIRFEVDDMMARIRQVREQGYASAEHIPFVGGGTICVLLPMTIQGQPVTMGLGGALDRIKQNYDRYLELLLNGVQQLKKSDSFHQPI”, “not failed”; under “LGTVIQENSRSGGEQSANFFVNGPLAENLLLQVYGQYTAREEDDIDYGYEDKDMQSISSKLIYQINDRHSVQLEGGTSAQSRRGNVGLSVPTTGCRRGCEDSLNEYRRNYVTLSHTGEWELLGNSDTYLQREESENKSREMTIVNTTFKSSLVKGLGAHTLTTGVDATHAELEDFTSNKASSKTKASNTQWAVFIEDEWKIAEPFSLTLGGRLDHDENYGAHFSPRVYGVWRVAPAWTVKGGVATGFRSPQLREITPGWAQVSGGGNIYGNPDLDPETSLNKEISVLYQGDSGLDVTLTAFHNEFKDKITRVVCPDTICTDGPNQWGADPTYRINVDEAVTQGVEATLAKPLTETIYLSSSYTFTDSEQKTGEYKGMPLQQLPKHLFNVDVTWQTTDNLESWTKVTYRGKEMDPVTGPSRNSIVEPAYTFVDAGVTYQLTDNTKIKGAIYNLFDEDINYKEYGYVEDGRRYWLGLDVAF”, “failed”. Under “LIKRMNAEELLHEKIEFNDLLLRSVENPIFWRDSRGFLIDCNAQFTRLLGISKDRLVGRSVYDICGDLHTPVLEGLLTKVLQGEGEQYDIDFKNHEGETLSFLVQASEYHDKSEKVAGVVTILFDMT” stands “failed”; under “LKDVLNILLMDEISKLKDFLSNLDYIKPKVNIEEEIIEIRKEDIINALKLFKGKYEIEVDKIPKAVYVYLVKKNILFLYPQRGTLKPQSFLVWNAIKRVL”, “not failed”; under “LKKLPAEIYLIDEQAKTSVQDFEYASYYHSSATVNTGTFNECRSADLVLFFQEEMSNESFSNEDNLALIKEKVKKMMATGFQGIVLVATAESNIVASLIKHFSGLPANQIITPG”, “failed”.

With “LKVMLRPILPEDEPKHLAFDNSLSDEDRYKRYFGVRSKMTHEEMAVLTQIDYAREMAFIATAKGPDGDDITLGAVRASIDPDNTEAEFAMAVRGDHQGIGLGKLLLEKLIKYYQANDTPVLTGFTMFENRNMASLAKNLGFKVTFDME”, the protein production entry is reported as “failed”. Turning to “LKYMYKIDDDKKYILYCPTWRGNQRKEVTQINLKDLLKYLPENYEIIVKLHPNESHLRTRYNQIDNRIHCYFNELVDIQELYILSECMITDYSSTIFDYIHLNKPVFILQEDEQQYKQSVGFYFDLFEVGDFLKASLNERMLAKQICSTDYINYSKVVHRLMKQDSSKSSEKLMAEILG”, the protein production result is “failed”.

For “LNLMMTPMLKVLATPERLAFGLKQMVSYLHANGVTAYMEPGALYTPDMWKLYEQILGAPETPMYATFIADGRGIVDRVGLDGALDAVEQQIAVAPEAPGRKLMFFPGQIKLFADGAIISQLMQMKDGYLDGHQGEWIIPPDELERRARLFWNAGYQIHTHVNGDLGLEKLLDILEKLNAEHPRPDHRSVIVHFANSTEDQVARIKRLGALVSANPYYTTGFADKYSAVGLGPERADAMVRAKSVLDQGVPLSYHSDLPMAPSAPLYLAWCGVNRLTPSGRVAGPEQRVSVDAALRAITIEAAYSWRHEDQ”, the protein production result is reported as “failed”. Under “LNSSYVNGNTAGNLYNAGLFCESDGEVFFSNTNDNGRLYAMNIDGSNIHKLSNDTAMYINADKNYVYYVRNNNQKITSQTFFSYDRNSLCRIKRNGHGSTVLDPDPCIYASLIGNYIYYLHYDTQTATSLYRIRIDGEEKKKIKNHYLFTCNTSDRYFYYNNPKNGQLYRYDTASQSEALFYDCNCYKPVVLDDTNVYYMDVNRDNAIVHVNINNPNPVVLTEANIEHYNVYGSLIFYQRGGDNPALCVVKNDGTGFKELAKGEFCNINVTSQYVYFTDFVSNKEYCTSTQNPDTIKALQP” stands “not failed”; under “LQCEICGFTCRQKASLNWHQRKHAETVAALRFPCEFCGKRFEKPDSVAAHRSKSHPALLLAPQES”, “not failed”. As for “LQESEARFQAFMNNSPSASWITDDHGRMLYLSQTYVRTFQLPFDKVEDVTGKTVFELYTPEVAQPFLDNIHRVAQTQQILETIEKAPRLDGTLGDFLVYKFPLPATTGELFIGGVAVDISDKIRAEQALQKLNQELEAR”, the protein production result was “not failed”. In the case of “LQSKLSLPKIPNVIECFDISHLSGTATVGSMVQFRGGRPDKHNYRRFKIESVEGIDDFASIAEVVRRRYSRLLEDKHEMPDLIIIDGGKGQLSSAFQELRKLRVKVPIISIAKREEEIYVPGLKSPLPIKKDEKASLFVQEIRDEAHRFAINYNRLLRQKALIQK” it was “failed”. In the case of “LRGFVPSSVWLERGVFPPSNEEVIKLGLSPTSMVARLKRQRLADGVVMAIEMSTMPVAYLPDPQAVGTSLYAHLDATGHSVVRALQHIRAVNASGDVAQLAGIRPGEAMLLITRIGFNADNVAIELTDTYCRNDYYDFVAELKR”, the protein production entry is given as “not failed”. As for “LRSNRVTQHPPLQLSLPVHLPDDETFTSYYPAAGNDELIGALKSAASGDGVQAIYLWGPVKSGRTHLIHAACARANELERRSFYIPLGIHASISTALLEGLEQFDLICIDDVDAVAGHPLWEEAIFDLYNRVAEQKRGSLIVSASASPMEAGFVLPDLVSRMHWGLTYQLQPMMDDEKLAALQRRAAMRGLQLPEDVGRFLLNRMARDLRTLFDVLDRLDKASMVHQRKLTIPFVKEMLRL”, the protein production result is “not failed”.
